We go through five molecules from paper PMC10709064, “The leucine zipper domain of the transcriptional repressor Opi1 underlies a signal transduction mechanism regulating lipid synthesis” (The Journal of Biological Chemistry, 2023).

T1: GST-N-Opi1^WT (glutathione-S-transferase fused to Opi1 aa1-190) (S. cerevisiae, UniProt P21957 1-190)
T1 construct: Opi1, S. cerevisiae, N terminus from aa1 to aa190 (N-Opi1), holds the leucine zipper (aa 139-166); pGEX-4T-1 expression vector; also called N-Opi1^1-190; not shown: GST, N-terminal, kept
T1 sequence (looked up): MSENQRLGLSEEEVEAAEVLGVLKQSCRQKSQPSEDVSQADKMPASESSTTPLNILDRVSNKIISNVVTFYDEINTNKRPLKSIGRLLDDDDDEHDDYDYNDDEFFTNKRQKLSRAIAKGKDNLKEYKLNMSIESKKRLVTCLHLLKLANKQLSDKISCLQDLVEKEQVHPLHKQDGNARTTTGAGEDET

T2: GST-N-Opi1^3L (L146A, L153S, L160A) (S. cerevisiae, UniProt P21957 1-190, L146A | L153S | L160A)
T2 construct: Opi1, S. cerevisiae, N terminus from aa1 to aa190 (N-Opi1) with the 3L mutations L146A L153S L160A; pGEX-4T-1 expression vector; not shown: GST, N-terminal, kept
T2 sequence (looked up): T1 sequence (looked up) with L146A, L153S, L160A

T3: GST-N-Opi1^N150D (S. cerevisiae, UniProt P21957 1-190, N150D)
T3 construct: Opi1, S. cerevisiae, N terminus from aa1 to aa190 (N-Opi1) with N150D; pGEX-4T-1 expression vector; not shown: GST, N-terminal, kept
T3 sequence (looked up): T1 sequence (looked up) with N150D

T4: MBP-N-Opi1^N150D (S. cerevisiae, UniProt P21957 1-190, N150D)
T4 construct: Opi1, S. cerevisiae, N terminus from aa1 to aa190 (N-Opi1) with N150D; pMAL-c expression vector; amplified from mutant OPI1 DNA template; source: for SEC further run on Superdex 200 Increase; not shown: MBP, N-terminal, kept
T4 sequence (looked up): T1 sequence (looked up) with N150D

T5: MBP-N-Opi1^3L (L146A, L153S, L160A) (S. cerevisiae, UniProt P21957 1-190, L146A | L153S | L160A)
T5 construct: Opi1, S. cerevisiae, N terminus from aa1 to aa190 (N-Opi1) with the 3L mutations L146A L153S L160A; pMAL-c expression vector; not shown: MBP, N-terminal, kept
T5 sequence (looked up): T1 sequence (looked up) with L146A, L153S, L160A

B1: MBP-C-Opi1^WT (maltose-binding protein fused to Opi1 aa291-404) (domain or fragment, S. cerevisiae, UniProt P21957 291-404, looked up)
chain: QQQQQQQQLLQQQLLQQQQQKRNKDGDDSASPSSSVTANGKVLILAKESLEMVRNVMGVVDSTLGKAEEWVKQKQEVKEMIRERFLQQQQQYRQQQQKDGNYVKPSQDNVDSKD
notes: Opi1, S. cerevisiae, C terminus from aa291 to aa404 (C-Opi1), holds the AID (aa 321-379); pMAL-c expression vector; also called C-Opi1^291-404; Opi1^291-404; not shown: MBP, N-terminal, kept
B2: GST-C-Opi1^S339F (domain or fragment, S. cerevisiae, UniProt P21957 291-404, looked up)
chain: B1 chain with S49F
notes: Opi1, S. cerevisiae, C terminus from aa291 to aa404 (C-Opi1) with S339F; pGEX-4T-1 expression vector; loss of function mutation known from earlier genetic work; not shown: GST, N-terminal, kept
B3: GST-C-Opi1^V343E (domain or fragment, S. cerevisiae, UniProt P21957 291-404, looked up)
chain: B1 chain with V53E
notes: Opi1, S. cerevisiae, C terminus from aa291 to aa404 (C-Opi1) with V343E; pGEX-4T-1 expression vector; loss of function mutation known from earlier genetic work; not shown: GST, N-terminal, kept
B4: MBP-N-Opi1^WT (maltose-binding protein fused to the N-terminal Opi1^1-190 polypeptide) (domain or fragment, S. cerevisiae, UniProt P21957 1-190, looked up)
chain: T1 sequence (looked up)
notes: Opi1, S. cerevisiae, N terminus from aa1 to aa190 (N-Opi1), holds the leucine zipper (aa 139-166); pMAL-c expression vector; also called N-Opi1^1-190; source: for SEC further run on Superdex 200 Increase; not shown: MBP, N-terminal, kept
B5: GST-C-Opi1^WT (glutathione-S-transferase fused to Opi1 aa291-404) (domain or fragment, S. cerevisiae, UniProt P21957 291-404, looked up)
chain: B1 chain
notes: Opi1, S. cerevisiae, C terminus from aa291 to aa404 (C-Opi1), holds the AID (aa 321-379); pGEX-4T-1 expression vector; also called C-Opi1^291-404; Opi1^291-404; not shown: GST, N-terminal, kept

Changes are numbered by the printed parent chain. Names may count otherwise.

In data set [1] the target is T1, GST-N-Opi1^WT …. Description: pull-down; around 0.5 ug bait on amylose resin or glutathione-Sepharose with 1.5 ug prey of the alternate tag in 100 ul binding buffer (20 mM Tris-HCl pH 8, 150 mM NaCl, 1 mM EDTA, 1 mM DTT, 20% glycerol, 0.05% Triton X-100) with 50 ug/ml BSA, 2 h at 4 C; bait eluted with its ligand, prey detected by Western blot against MBP or GST. Particulars: both partners purified.

Data set [2] concerns the target T2, GST-N-Opi1^3L (L146A, L153S, L160A). Nature of the data set: pull-down; as the pull-down with alternate tags, but binding reactions carried out at decreasing reactant concentrations (relative volume of the binding reaction varied); prey detected by Western blot. Particulars: both partners purified.
In another data set the target is T3, GST-N-Opi1^N150D. The data set is described as above. Particulars: both partners purified.
Data set [3] concerns the target B4. Described as above. Particulars: both partners purified.
Data set [4] deals with the molecule itself. Description: SEC; 0.5 mg of affinity-purified MBP fusion on Superdex 200 Increase 10/300 GL, 20 mM Tris-HCl pH 7.4, 150 mM NaCl, 0.5 ml/min; molecular weights estimated from calibration markers.
The target of a further data set is T4, MBP-N-Opi1^N150D. Description: pull-down; as the pull-down with alternate tags, but binding reactions carried out at decreasing reactant concentrations (relative volume of the binding reaction varied); prey detected by Western blot. Particulars: both partners purified.
The target of data set [5] is T5, MBP-N-Opi1^3L (L146A, L153S, L160A). The description is as above. Particulars: both partners purified.

For B1, the binding result (in data set [1]; in data set [2]; with GST-N-Opi1^N150D) was “binds” in each case.

Consider B2, for which, in data set [3], the binding result is on record as “binds”.

For B3, in data set [3], the binding result is given as “binds”.

Consider B4, for which the “stoichiometry N” value in data set [4] is ~2.

In the case of B5, the binding result (with MBP-N-Opi1^N150D; in data set [5]; in data set [3]) was “binds” throughout.
